According to publication PMC9966725, “Preclinical Evaluation of a Lead Specific Chelator (PSC) Conjugated to Radiopeptides for ^203Pb and ^212Pb-Based Theranostics” (Pharmaceutics, 2023):

Assays:
[1] = Radiochemical stability of radiometal complex in saline, radio-iTLC; type: physicochemical; details: 37 MBq mL^-1 in saline at room temperature for 24 h, regardless of PSC-PEG-T concentration (1, 3, 5 µM)
Method: (§1) Using [^203Pb]Pb-PSC-PEG-T surrogate, radiochemical stability of [^203Pb]Pb-PSC-PEG-T in saline was monitored for 72 h. Similarly, single species of [^212Bi]Bi-PSC-PEG-T in saline were also monitored for 5 h (five half-lives of ^212Bi). [^203Pb]Pb-PSC-PEG-T and [^212Bi]Bi-PSC-PEG-T were radiolabeled and purified on Sep-Pak® C18 SPE columns as previously described. Next, 7.4 MBq mL^−1 of purified [^203Pb]Pb-PSC-PEG-T and [^212Bi]Bi-PSC-PEG-T were stored in saline supplemented with 5% EtOH and 1 mg mL^−1 sodium ascorbate for 72 h and 5 h, respectively, followed by analysis of radiochemical purity by radio-iTLC method. Then, radiochemical stability of [^212Pb]Pb-PSC-PEG-T and progeny [^212Bi]Bi-PSC-PEG-T were determined by radio-iTLC after storage of 37 MBq mL^−1 radiolabeled [^212Pb]Pb-PSC-PEG-T in saline for 24 h, and further confirmed by radio-HPLC analysis. In human serum, radiochemical stability of [^212Pb]Pb-PSC-PEG-T and progeny [^212Bi]Bi-PSC-PEG-T were determined after incubation of 3.7 MBq [^212Pb]Pb-PSC-PEG-T in 1 mL human serum at 37 °C for 24 h. In addition, metabolic stability of Pb-PSC-PEG-T radiopeptide in serum was determined by radio-HPLC after incubating [^203Pb]Pb-PSC-PEG-T surrogate in human serum for 55 h (five half-lives of ^212Pb). Following the incubation, serum protein was precipitated in ice-cold methanol (1:1.5 v/v) for 10 min, followed by centrifugation at 10,000× g for 10 min. The supernatant was collected and analyzed on radio-HPLC.
In radio-iTLC analysis, 0.1 M NaOAc with 1 mM DTPA was used as mobile phase for ^203Pb, ^212Pb, ^212Bi. Citric acid (0.1 M) was used as mobile phase for ^68Ga. Upon radio-iTLC analysis, 2 µL aliquot sample was spotted on the radio-iTLC strips (2 × 10 cm) and developed in the mobile phase. Radioactivity of ^203Pb and ^212Pb was measured on NaI(Tl) gamma spectroscope using 279 keV and 238 keV gamma peaks, respectively. Radioactivity of ^212Bi on radio-iTLC was measured on the Ludlum Model 3030 α-particle counter. Radio-HPLC analysis was conducted on Agilent 1260 (Agilent, Santa Clara, CA, USA). Binary mobile phases were applied to run 5–60% phase B (acetonitrile) over phase A (0.1% TFA in water) over 10 min on ZORBAX RR Eclipse XDB-C18 column (4.6 × 150 mm, 5 µm). Radioactivity of ^203Pb was measured on flow-through 105S-1 single channel radiation detector (Corroll & Ramsey, Fort Collins, CO, USA). To measure ^212Pb and ^212Bi activity on radio-HPLC, eluate was collected every 10 s on a HPLC fraction collector. Radioactivity of ^212Pb and ^212Bi in each collected eluate was measured on Cobra II automated gamma counter using 238 keV and 583 keV gamma peaks immediately after collection.

[2] = Stability of radiopeptide in saline, radio-HPLC; type: physicochemical; details: 24 h storage in saline, C18, fractions counted on gamma counter
Method: as §1, with “Following the incubation, serum protein was precipitated in ice-cold methanol (1:1.5 v/v) for 10 min, followed by centrifugation at 10,000× g for 10 min.” left out, “radio-HPLC. […]” for “radio-HPLC.”

AR42J xenograft = assay: in vivo; design: species or system mice; details: female, athymic nude, mouse, 24 h
Method: (§2) Biodistribution of [^212Pb]Pb-PSC-PEG-T and progeny ^212Bi^3+ was determined in two animal models, including female naïve CD-1Elite mice and athymic mice bearing AR42J tumor xenografts. SSTR2-positve AR42J cells were cultured in 10% Minimum Essential Medium (MEM) supplemented with 10% fetal bovine serum (FBS), 100 units mL^−1 penicillin, and 100 units mL^−1 streptomycin 37 °C in a humidified atmosphere (5% CO2). All animal studies were performed in accordance with the Guide for the Care and Use of Laboratory Animals, according to protocols approved by the University of Iowa Animal Care and Use Committee (protocol#1122453 approved on 16 February 2022). Xenograft of AR42J tumor was developed by subcutaneous (s.c.) injection of 1 × 10^6 cells at the left shoulder of female athymic nude mice. [^212Pb]Pb-PSC-PEG-T was radiolabeled and purified as described above, and kept at room temperature away from light for 3 h before injection, to allow progeny ^212Bi to approach equilibrium before injection. Upon assay, 74 kBq [^212Pb]Pb-PSC-PEG-T (peptide mass = 5–10 pmole) were injected via tail vein (n = 2–3). Animals were euthanized at designated time points (1, 5, 24 h for naïve CD-1 mice; 1, 4 h for AR42J-bearing mice). Organs of interest and tumors were collected, rinsed, and weighed. Radioactivity of ^212Pb and ^212Bi in each sample was measured on an automated gamma counter by 238 keV and 583 keV gamma peaks, respectively. ^212Bi was purified from the generator eluate on RE2 resin and collected in pH = 6 sodium acetate as described above. Biodistribution of free ^212Bi in normal organs was determined at 2 h post injection of 74 kBq ^212Bi in naïve female CD-1 Elite mice (n = 3). Radioactivity in samples was decay corrected and data were expressed as percent injected dose per gram of tissue (%ID/g). SPECT imaging of [^203Pb]Pb-PSC-PEG-T and [^212Pb]Pb-PSC-PEG-T in female athymic nude mice bearing AR42J xenograft (n = 2) was conducted on Bioemtech Gamma-Eye Imaging system (Bioemtech, Athens, Greece) with 30–500 keV dynamic range and 1.9 mm spatial resolution. Whole body 2D-SPECT imaging of [^203Pb]Pb-PSC-PEG-T and [^212Pb]Pb-PSC-PEG-T were collected at 3 h and 24 h (n = 2) post injection of 1.8 MBq [^203Pb]Pb-PSC-PEG-T (52 MBq nmole^−1) and 3.7 MBq [^212Pb]Pb-PSC-PEG-T (20 MBq nmole^−1). SPECT images were generated by acquiring ten 30 s projections. Imaging data were reconstructed and normalized to percent of injected dose (%ID) in tumor and kidneys based on region of interest (ROI) analysis on VISUAL-Eyes software (Bioemtech, Athens, Greece). Animals were euthanized after conclusion of the study at 24 h post injection. Tumor xenografts and organs of interest were collected and weighed. Radioactivity of ^203Pb or ^212Pb was determined on automated gamma counter and normalized to %ID/g.

[3] = test system: SSTR2-positive AR42J xenografts; assay: in vivo; design: species or system mice; details: female, athymic nude, mouse, iv, 74 kBq, 1 h
Method: as §2

[4] = after β decay of ^212Pb; cited from earlier work
Text: Potential ambiguity in these predictions arises due to the nature of the ^212Pb decay series. The decay of ^212Pb to ^212Bi might lead to a decoupling of the progeny ^212Bi from the chelator, adding uncertainty to the biodistribution of radioactivity, especially the α-emitters (i.e., ^212Bi, ^212Po). Using particle and heavy ion transport code system (PHITS) modeling, we have shown that α-particles contribute to more than 90% of dose deposition in 10 µm diameter single cells and 1 cm diameter micro-metastasis, while the dose from β-particles becomes more significant ...

## C[C@@H](O)[C@@H]1NC(=O)[C@H](CCCCN)NC(=O)[C@@H](Cc2c[nH]c3ccccc23)NC(=O)[C@H](Cc2ccc(O)cc2)NC(=O)[C@@H](NC(=O)[C@@H](Cc2ccccc2)NC(=O)CCOCCOCCNC(=O)CN2CCN(CC(=O)O)CCN(CC(N)=O)CCN(CC(=O)O)CC2)CSSC[C@@H](C(=O)N[C@H](CO)[C@@H](C)O)NC1=O [[^212Pb]Pb-PSC-PEG-T] [metal not drawn]
[1]
  ^212Pb remained in PSC-PEG-T: More than 99.6%
[2]
  radiochemical purity (radiometal remained incorporated as radiopeptide): > 95%
AR42J xenograft
  activity in lungs: 0.3 %ID/g
[3]
  accumulation in adrenal glands: 3.6 %ID/g
  accumulation in bones: 1.4 %ID/g
  accumulation in kidneys: 28.1 %ID/g
  accumulation in liver: 0.8 %ID/g
  accumulation in spleen: 0.6 %ID/g

## O=C(O)CN1CCN(CC(=O)O)CCN(CC(=O)O)CCN(CC(=O)O)CC1 [DOTA, 1,4,7,10-tetraazacyclododecane-1,4,7,10-tetraacetic acid]
[4]
  ^212Bi^3+ released from chelator: approximately 36%
